Target: T1, murine OX40-human IgG Fc fusion (extracellular portion) (Mus musculus, UniProt P47741 20-211)
T1 sequence: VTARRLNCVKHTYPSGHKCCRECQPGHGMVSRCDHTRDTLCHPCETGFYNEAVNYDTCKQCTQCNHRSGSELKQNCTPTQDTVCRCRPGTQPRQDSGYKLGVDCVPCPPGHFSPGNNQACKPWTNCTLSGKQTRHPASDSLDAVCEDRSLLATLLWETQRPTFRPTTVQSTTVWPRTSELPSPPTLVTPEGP
Test: filter binding

B1: aptamer 9.8PM (point mutant) (structured_RNA)
RNA: GGGAGGACGAUGCGGCAGUCUGCAUCGUAGGAUUAGCCACCGUAUACUUUCCCACCAGACGACUCGCUGAGGAUCCGAGA
modifications: 2'-fluoro pyrimidines, 2'-OH purines
B1: no binding.

From paper PMC2525512
